Measured values published in patent publication US5763271A, “Vasodilatory and immune suppressant peptides” (The President and Fellows of Harvard College, priority 1994, dated 1998).
Where no end group is shown, it is not given here.

Assays:
human macrophages = assay: H2O2 production by IFN-γ activated macrophages (scopoletin fluorometric assay); format: cell-based; conditions: 3 hrs preincubation, IFN-γ 200 units/ml, 3 days
Experimental: Monocytes obtained by leukophoresis of healthy volunteers were purified on Ficoll-hypaque and Percoll (Pharmacia, Piscataway, N.J.) gradients and placed into microtiter well (5×10^5 /well) in RPMI-1640 (GIBCO, Grand Island, N.Y.) with 5% pooled normal human serum and 1% gentamycin (M. A. Bioproducts, Walkinville, Md.). The cells were greater than 95% macrophages as judged by esterase staining. […] After one day in culture, non-adherent cells were rinsed away and the macrophages were treated, e.g., with human CGRP, Calcitonin, or LP as described below. Following treatment, the macrophages were incubated for three days with a concentration of from 100 to 400 units interferon gamma (Amgen Biologicals, Thousand Oaks, Calif.), in medium with 15% pooled normal human serum, at which time the H2 O2 concentration in the cells was determined.
H2 O2 production by macrophages was determined by fluorometric assay using the fluorophore scopoletin (de la Harpe et al., J. Immunol. Methods 78: 323 (1985)). […] The amount of H2 O2 released per culture is determined as nanomoles H2 O2. […]
Human macrophage monolayers were pretreated for three hours with varying concentrations of human CGRP. […] The amount Of H2 O2 produced by the cells was then determined according to the above procedure. […]

RAW 264.7 cell line = assay: Inhibition of nitric oxide production by LPS-stimulated macrophages (Greiss reaction); format: cell-based; conditions: 10^6 to 10^1 pg/ml; LPS 1 μg/ml; nitrite 2 hours later
Experimental: Macrophage cells from the RAW 264.7 cell line (Drapier et al. (1988) J. Immunol. 140:2829) were preincubated with various concentrations of LP protein as indicated in FIG. 8. The cells were then stimulated with 1 μg/ml lipopolysaccharide […] (LPS) and NO production was monitored 2 hours later by measuring nitrite in the supernatants of the cultures. Nitrite was measured by the method described in Ding et al. (1988) J. Immunol. 141:2407. Briefly, levels of nitrite in the supernatants of the cultures were assessed by the Greiss reaction as follows. 50 μl cell culture supernatants were mixed with 50 μl of Greiss reagent [1% sulfanilamide, 0.1% N-(1-naphthyl)ethyl-enediamine dihydrochloride in 2.5% phosphoric acid] and incubated at room temperature for 10 minutes. Absorbance was measured at 570 nm. Concentration of NO2 in the supernatant was determined by comparison to a standard curve generated with dilutions of NaNO2.

Leishmania major = assay: Exacerbation of cutaneous leishmaniasis (footpad lesion size); format: in vivo, CBA mice; conditions: 80 pg admixed with 10^5 L. major promastigotes, subcutaneous
Experimental: In order to assay for immunosuppressive activity, the recombinant LP protein described in subsection A above was tested for the ability to exacerbate infection of mice with Leishmania major substantially as described in Titus et al. (1988) Science 239, 1306 and Theodos et al. (1991) Infect. Immun. 59, 1592-1598.
Briefly, groups of 4 CBA mice each were injected subcutaneously in the footpad with 10^5 L. major promastigotes alone or 10^5 parasites admixed with 80 pg of LP protein. Lesion development was followed by measuring the increase in thickness of the injected footpad compared to the thickness of the contralateral uninjected control footpad.

In the case of “calcitonin (CGNLSTCMLGTYTQDFNKFHTFPQTAIGVGAP; ends and bridges not checked; cysteine pairing not given here; UniProt P01258 85-116, looked up) [neuropeptide derived from the same gene as CGRP, available commercially]”, the “inhibition of H2O2 production by macrophages” value (human macrophages) is reported as “to a degree similar to that seen with CGRP”.

B1: recombinant LP protein: LP protein, substantially the amino acid sequence of SEQ ID NO:4, expressed in E. coli as a polyHis fusion protein (protein)
chain: MKYSLNNLHFLVDVAEGCDATCQFRKAIEDCRKKAHHSDVLQTSVQTTATFTSMDTSQLPGSGVFKECMKEKAKEFKAGK
modifications: polyHis tag
With B1 the “NO production by macrophages preincubated with the protein” value (RAW 264.7 cell line) was “significant decrease” and the “effect on Leishmania infection (size of footpad lesions)” value (Leishmania major) was “greatly exacerbated”.
